Test results published in patent US20240069033A1 (Chugai, published 2024).
No end group written: not given here. puromycin linker = puromycin spacer joining the C-terminus of the translated peptide to its mRNA (mRNA display); mRNA = not defined here

Columns and labels:
[1] = biological target: T1, biotinylated splitNanoluc1-8; test: mRNA display pull-down with biotinylated splitNanoluc1-8, qPCR
T1 chain: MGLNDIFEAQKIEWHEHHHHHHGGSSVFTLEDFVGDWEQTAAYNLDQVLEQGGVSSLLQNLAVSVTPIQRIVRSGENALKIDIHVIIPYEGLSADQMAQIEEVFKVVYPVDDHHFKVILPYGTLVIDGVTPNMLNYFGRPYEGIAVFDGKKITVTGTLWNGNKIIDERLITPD
Protocol: (§1) Each Display molecule before reacting with biotinylated splitNanoluc1-8 was also subjected to qPCR in the same way, and the input nucleic acid amount was calculated.

[2] = biological target: T1, biotinylated splitNanoluc1-8; test: mRNA display pull-down with biotinylated splitNanoluc1-8 on streptavidin beads, qPCR
Protocol: as §1

Binder: MVSGWRLFKKISGSGSGSGSENLYFQGKK-{puromycin linker-mRNA} (reading uncertain; also: mRNA reverse transcribed before assay, mRNA display molecule) [splitNanoluc-10]
- fold lower recovery rate than the splitNanoluc9-10 fusion peptide [1]: ≥ 300 times
- binding result [2]: no binding

Binder: MGSMLFRVTINSGSGSGSGSENLYFQGKK-{puromycin linker-mRNA} (reading uncertain; also: mRNA reverse transcribed before assay, mRNA display molecule) [splitNanoluc-9]
- fold lower recovery rate than the splitNanoluc9-10 fusion peptide [1]: ≥ 300 times
- binding result [2]: no binding
